One block for each binder: values may come before it.
Target: affinity purified BACE1 (BACE1-myc, wild type) (UniProt P56817 22-501, limits assumed)
Test: cell-based or functional assay

affinity purified BACE1 (BACE1-myc, wild type), sequence (P56817 22-501 limits assumed, form in doubt): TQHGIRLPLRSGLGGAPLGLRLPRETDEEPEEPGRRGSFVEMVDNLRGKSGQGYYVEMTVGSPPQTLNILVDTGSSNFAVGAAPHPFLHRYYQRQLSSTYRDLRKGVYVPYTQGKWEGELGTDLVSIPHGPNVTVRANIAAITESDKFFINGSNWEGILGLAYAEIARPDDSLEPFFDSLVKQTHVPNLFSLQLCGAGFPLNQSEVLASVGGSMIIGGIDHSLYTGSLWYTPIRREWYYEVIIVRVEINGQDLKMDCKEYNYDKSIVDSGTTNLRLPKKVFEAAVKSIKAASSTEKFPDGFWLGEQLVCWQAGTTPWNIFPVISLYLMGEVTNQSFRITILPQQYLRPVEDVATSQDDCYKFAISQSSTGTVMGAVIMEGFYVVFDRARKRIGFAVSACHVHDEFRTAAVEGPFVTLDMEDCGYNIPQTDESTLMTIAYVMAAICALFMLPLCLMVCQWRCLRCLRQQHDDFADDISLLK

acetylCoA:lysine acetyltransferase activity recovered from total cell extracts (acceptor: affinity purified BACE1): ~3 fold
B1: ATase2 (acetyltransferase 2) with a myc tag at the C-terminus (enzyme, not shown: small tags and cut ends)
chain: MAPCHIRKYQESDRQWVVGLLSRGMAEHAPATFRQLLKLPRTLILLLGGPLALLLVSGSWLLALVFSISLFPALWFLAKKPWTEYVDMTLCTDMSDITKSYLSERGSCFWVAESEEKVVGMVGALPVDDPTLREKRLQLFHLFVDSEHRRQGIAKALVRTVLQFARDQGYSEVILDTGTIQLSAMALYQSMGFKKTGQSFFCVWARLVALHTVHFIYHLPSSKVGSL

acetyltransferase activity recovered from cell extracts (acceptor: affinity purified BACE1): ~2 fold
B2: ATase1 (acetyltransferase 1) with a myc tag at the C-terminus (enzyme, not shown: small tags and cut ends)
chain: MAPYHIRKYQESDRKSVVGLLSRGMAEHAPATFRRLLKLPRTLILLLGGALALLLVSGSWILALVFSLSLLPALWFLAKKPWTRYVDIALRTDMSDITKSYLSECGSCFWVGESEEKVVGTVGALPVDDPTLREKRLQLFHLSVDNEHRGQGIAKALVRTVLQFARDQGYSEVVLDTSNIQLSAMGLYQSLGFKKTGQSFFHVWARLVDLHTVHFIYHLPSAQAGRL

— patent publication US20090136977A1 (published 2009)
